B1: lymphocyte-specific protein-1 (Lsp1, mLsp1): S209A (protein)
parent chain: MAEAAIDPRCEEQEELHAEDSEGLTTQWREEDEEEAAREQRQRERERQLQDQDKDKEDDGGHSLEQPGQQTLISLKSSELDEDEGFGDWSQKPEPRQQFWGNEGTAEGTEPSQSERPEEKQTEESSHQAKVHLEESNLSYREPDPEDAVGGSGEAEEHLIRHQVRTPSPLALEDTVELSSPPLSPTTKLADRTESLNRSIKKSNSVKKSQPTLPISTIDERLQQYTQATESSGRTPKLSRQPSIELPSMAVASTKTLWETGEVQSQSASKTPSCQDIVAGDMSKKSLWEQKGGSKISSTIKSTPSGKRYKFVATGHGKYEKVLVDEGSAP
B2: lymphocyte-specific protein-1 (Lsp1, mLsp1): thiamet-G (TG) (protein)
parent chain: B1 parent chain

Assays:
[1] = phospho-S243 immunoblot, anti-IgM-stimulated Ramos; conditions: glycan lost; control: WT Lsp1
[2] = phospho-S243 immunoblot, anti-IgM-stimulated splenic B cells; conditions: glycan gained; control: no TG

| Protein | other: phosphorylation at S243 [1] | other: phosphorylation at S243 [2] |
| --- | --- | --- |
| B1 | decreases |  |
| B2 |  | increases |

— PMC4999498
